From US20200399318A1, “PEPTIDE INHIBITORS OF PHOSPHOGLYCERATE MUTASE AND METHODS OF USE” (priority 2016, published 2020) come the findings set out here.

Test [1] has as its system iPGM orthologs and dPGM isozymes. The class given is biochemical.
A further test concerns the target E. coli iPGM (Escherichia coli, UniProt P37689). As to the kind of experiment: biochemical.
A further test addresses O. volvulus iPGM (Onchocerca volvulus, UniProt I6LDA6). The test can be described thus: biochemical.
The next test addresses B. malayi iPGM (Brugia malayi, UniProt Q4VWF8). As to the kind of experiment: biochemical.
In another test the test system is D. immitis iPGM. The format is biochemical, Dirofilaria immitis.
Test [2] has as its target T1, C. elegans cofactor-independent phosphoglycerate mutase (iPGM) (Caenorhabditis elegans), G5EFZ1.
T1 chain: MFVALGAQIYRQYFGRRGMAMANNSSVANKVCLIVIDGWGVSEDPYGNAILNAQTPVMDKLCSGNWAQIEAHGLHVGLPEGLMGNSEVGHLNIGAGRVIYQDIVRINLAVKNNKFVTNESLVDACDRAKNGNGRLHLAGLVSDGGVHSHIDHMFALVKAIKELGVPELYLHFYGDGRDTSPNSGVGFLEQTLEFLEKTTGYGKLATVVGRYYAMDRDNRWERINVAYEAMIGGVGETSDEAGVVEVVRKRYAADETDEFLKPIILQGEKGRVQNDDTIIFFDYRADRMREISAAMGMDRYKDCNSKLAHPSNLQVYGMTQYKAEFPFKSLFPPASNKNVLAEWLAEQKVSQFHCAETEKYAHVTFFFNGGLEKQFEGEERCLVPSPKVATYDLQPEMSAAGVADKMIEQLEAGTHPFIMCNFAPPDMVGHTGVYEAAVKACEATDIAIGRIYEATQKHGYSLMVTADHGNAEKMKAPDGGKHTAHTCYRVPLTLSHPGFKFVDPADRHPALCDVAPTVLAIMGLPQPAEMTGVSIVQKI
As to the kind of experiment: quadratic (stoichiometric binding) model fitted to concentration response curves of the coupled bioluminescent enzyme assay at several C. elegans iPGM concentrations (FIG. 10B).

A further test deals with iPGM orthologues. The test can be described thus: cell-based or functional assay.
The target of test [3] is T2, E. coli cofactor-dependent phosphoglycerate mutase (dPGM) (Escherichia coli), P62707.
T2 chain: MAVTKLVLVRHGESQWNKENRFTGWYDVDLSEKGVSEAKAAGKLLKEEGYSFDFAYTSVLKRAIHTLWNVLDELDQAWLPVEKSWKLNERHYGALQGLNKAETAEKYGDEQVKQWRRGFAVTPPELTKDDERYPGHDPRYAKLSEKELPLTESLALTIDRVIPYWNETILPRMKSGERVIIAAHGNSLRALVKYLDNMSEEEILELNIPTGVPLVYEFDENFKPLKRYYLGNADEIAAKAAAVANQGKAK
The test can be described thus: cell-based or functional assay.

The target of test [4] is H. sapiens cofactor-dependent phosphoglycerate mutase (dPGM) (Homo sapiens), P18669. The test can be described thus: cell-based or functional assay.
The target of test [5] is T3, B. malayi cofactor-independent phosphoglycerate mutase (iPGM) (Brugia malayi), Q4VWF8.
T3 chain: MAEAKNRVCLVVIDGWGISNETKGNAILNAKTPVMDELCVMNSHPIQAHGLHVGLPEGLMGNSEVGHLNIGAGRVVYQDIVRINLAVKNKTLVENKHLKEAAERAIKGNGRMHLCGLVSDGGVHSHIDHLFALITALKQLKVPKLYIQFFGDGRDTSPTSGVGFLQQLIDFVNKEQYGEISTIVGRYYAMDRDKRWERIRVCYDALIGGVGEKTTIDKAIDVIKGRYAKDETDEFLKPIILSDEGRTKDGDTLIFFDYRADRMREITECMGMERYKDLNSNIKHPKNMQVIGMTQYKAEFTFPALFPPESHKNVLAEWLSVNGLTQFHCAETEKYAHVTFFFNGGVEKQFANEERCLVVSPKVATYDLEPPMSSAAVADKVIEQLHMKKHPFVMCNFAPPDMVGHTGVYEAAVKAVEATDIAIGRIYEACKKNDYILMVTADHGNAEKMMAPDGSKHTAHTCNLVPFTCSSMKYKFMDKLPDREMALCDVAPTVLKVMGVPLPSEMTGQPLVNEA
As to the kind of experiment: cell-based or functional assay.

Test [6] deals with T1, C. elegans cofactor-independent …. The test can be described thus: cell-based or functional assay.
The target of test [7] is T4, O. volvulus cofactor-independent phosphoglycerate mutase (iPGM) (Onchocerca volvulus), I6LDA6.
T4 chain: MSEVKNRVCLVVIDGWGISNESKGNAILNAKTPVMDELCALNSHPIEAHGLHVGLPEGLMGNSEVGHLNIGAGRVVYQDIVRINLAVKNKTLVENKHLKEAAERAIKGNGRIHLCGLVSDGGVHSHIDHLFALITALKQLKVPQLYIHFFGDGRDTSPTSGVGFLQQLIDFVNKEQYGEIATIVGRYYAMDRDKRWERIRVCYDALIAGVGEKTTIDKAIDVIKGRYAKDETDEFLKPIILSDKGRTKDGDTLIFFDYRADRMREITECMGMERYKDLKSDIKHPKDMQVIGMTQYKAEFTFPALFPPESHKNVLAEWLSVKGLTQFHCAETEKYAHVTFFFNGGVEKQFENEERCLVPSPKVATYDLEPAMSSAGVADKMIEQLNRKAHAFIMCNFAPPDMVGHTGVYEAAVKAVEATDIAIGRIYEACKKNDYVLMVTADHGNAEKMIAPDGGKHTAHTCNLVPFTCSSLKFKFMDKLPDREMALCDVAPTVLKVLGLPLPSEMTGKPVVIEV
The test can be described thus: cell-based or functional assay.

The target of test [8] is T5, E. coli cofactor-independent phosphoglycerate mutase (iPGM) (Escherichia coli), P37689. As to the kind of experiment: cell-based or functional assay.
In test [9] the target is T3, B. malayi cofactor-independent …. As to the kind of experiment: cell-based or functional assay.
The target of test [10] is T1, C. elegans cofactor-independent …. As to the kind of experiment: cell-based or functional assay.
The target in test [11] is T4, O. volvulus cofactor-independent …. The test can be described thus: cell-based or functional assay.
Test [12] addresses T5, E. coli cofactor-independent …. The test can be described thus: cell-based or functional assay. This is another data set of the same source.
Test [13] has as its target T4, O. volvulus cofactor-independent …. As to the kind of experiment: cell-based or functional assay.
[14] abbreviates: read-out: E. coli iPGM Max Inhibition.
The mark [15] stands for this setting: read-out: O. volvulus iPGM Max Inhibition.
[16] abbreviates: read-out: B. malayi iPGM Max Inhibition.

“And” between values parts separate entries of the source, which are not always exact repeats. Identical values can stand only once. Like-named read-outs stand apart in the source and are kept apart here. Where a SMILES comes first, the peptide text is derived from it. Bridges are numbered along the chain shown (N, C = ends). [ ]: non-standard residue; d: D form.

E. coli iPGM, sequence (P37689 whole entry, looked up): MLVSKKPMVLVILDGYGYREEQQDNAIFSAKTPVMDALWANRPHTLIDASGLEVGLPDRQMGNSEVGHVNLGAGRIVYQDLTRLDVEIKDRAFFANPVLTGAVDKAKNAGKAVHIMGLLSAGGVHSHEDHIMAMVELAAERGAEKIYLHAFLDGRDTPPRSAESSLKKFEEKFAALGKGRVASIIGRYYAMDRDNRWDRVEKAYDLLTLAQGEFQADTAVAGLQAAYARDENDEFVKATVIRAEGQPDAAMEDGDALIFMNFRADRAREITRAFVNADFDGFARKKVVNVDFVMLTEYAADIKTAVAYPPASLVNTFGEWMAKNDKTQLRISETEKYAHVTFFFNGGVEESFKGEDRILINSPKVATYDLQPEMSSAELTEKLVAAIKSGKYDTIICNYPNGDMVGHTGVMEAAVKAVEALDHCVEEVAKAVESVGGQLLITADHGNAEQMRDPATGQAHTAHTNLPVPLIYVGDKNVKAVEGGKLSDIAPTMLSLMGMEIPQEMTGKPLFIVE

Take `CC(C)C[C@H](NC(=O)[C@H](Cc1ccc(O)cc1)NC(=O)[C@@H]1CSCC(=O)N[C@H](Cc2ccc(O)cc2)C(=O)N[C@@H](CC(=O)O)C(=O)N[C@@H](Cc2ccc(O)cc2)C(=O)N2CCC[C@H]2C(=O)NCC(=O)N[C@@H](CC(=O)O)C(=O)N[C@@H](Cc2ccc(O)cc2)C(=O)N1)C(=O)N[C@@H](Cc1ccc(O)cc1)C(=O)NCC(=O)N[C@H](C(=O)N[C@@H](CS)C(N)=O)[C@@H](C)O` [Ce-2a]: in [1], the “inhibitory activity on the iPGM orthologs” value was “subnanomolar potency”. On E. coli iPGM, the “E. coli iPGM PIC50, M” value was 8.51 ± 0.14 M and 9.58 ± 0.02 M. Also, the Emax at E. coli iPGM (setting [14]) was 99.2 ± 8.5%; on O. volvulus iPGM (setting [15]), 97.7 ± 4.4%; on B. malayi iPGM (setting [16]), 99.2 ± 5.3%. The values for the inhibition at 0.0005 µM at E. coli iPGM (setting [14]), at O. volvulus iPGM (setting [15]) and on B. malayi iPGM (setting [16]) were 84.1 ± 9.5%, 97.5 ± 2.7% and 100.3 ± 0.8%, respectively. Besides, the “O. volvulus iPGM PIC50, M” value at O. volvulus iPGM is 7.31 ± 0.09 M. On O. volvulus iPGM, the “pIC50 O. volvulus iPGM” value is given as 9.68. The “B. malayi iPGM PIC50, M” value on B. malayi iPGM is 8.07 ± 0.10 M and 9.49 ± 0.08 M. Further, the results for the “D. immitis iPGM Max Inhibition” value with D. immitis iPGM and in the test on D. immitis iPGM (0.0005 µM) were −100.1 ± 5.6 and −92.5 ± 4.0, respectively. The “D. immitis iPGM PIC50, M” value in the test on D. immitis iPGM came to 9.68 ± 0.09 M.

On to ^Ac-DYLYGTCG [Ce-2tail], for which the “activity on all PGMs” value in [1] was “inactive”. Further, the “E. coli iPGM Max Inhibition” value at E. coli iPGM was −21.1 ± 2.7. Further, the “O. volvulus iPGM Max Inhibition” value on O. volvulus iPGM is −11.6 ± 5.3. Further, at B. malayi iPGM, the “B. malayi iPGM Max Inhibition” value is recorded as −10.2 ± 3.3. In addition, the “D. immitis iPGM Max Inhibition” value with D. immitis iPGM was −1.9 ± 10.3.

Turning to ^Ac-DYDYPGDYSYLY [Ce-L2d], the “inhibitory activity on the iPGM orthologs” value in [1] is “completely inactive”. At E. coli iPGM, the “E. coli iPGM Max Inhibition” value is −21.1 ± 2.4. Besides, the “O. volvulus iPGM Max Inhibition” value at O. volvulus iPGM was −15.7 ± 8.3. Further, the “B. malayi iPGM Max Inhibition” value at B. malayi iPGM is −7.3 ± 2.0. The “D. immitis iPGM Max Inhibition” value with D. immitis iPGM is on record as −5.2 ± 4.9.

In the case of `C[C@@H](O)[C@H](NC(=O)[C@H](CO)NC(=O)[C@@H]1CSCC(=O)N[C@H](Cc2ccc(O)cc2)C(=O)N2CCC[C@H]2C(=O)N[C@@H](CCC(=O)O)C(=O)N[C@@H](Cc2c[nH]c3ccccc23)C(=O)N2CCC[C@H]2C(=O)N[C@@H](CC(N)=O)C(=O)N1)C(=O)N[C@@H](CS)C(=O)NCC(N)=O` [Bm-6] ({CH2CO}-[dY]PEWPNCSTCG-NH2; thioether N-7), the “E. coli iPGM PIC50, M” value at E. coli iPGM came out at 5.55 ± 0.07 M. The results for the Emax on E. coli iPGM (setting [14]), on O. volvulus iPGM (setting [15]) and on B. malayi iPGM (setting [16]) were 77.4 ± 4.3%, 86 ± 3.2% and 86.8 ± 0.6%, respectively. The “O. volvulus iPGM PIC50, M” value on O. volvulus iPGM was 6.08 ± 0.53 M. Besides, the “pIC50 B. malayi iPGM” value at B. malayi iPGM is reported as 6.16. In addition, the “D. immitis iPGM Max Inhibition” value in the test with D. immitis iPGM is −90.2 ± 1.2.

Regarding YDYPGDYCYLYGTCG (modifications not checked) [Ce-2 (ipglycermide B)], in [2], the Kd (usually the equilibrium constant for the complex coming apart) stood at 0.073 nM. The molecule also had an inhibitory activity (endpoint profiling assays) in the test with iPGM orthologues of 2 to 20 nM. The Max Inhibition is -5.9 in test [3]; -0.3 in test [4]; -98.8 in test [5]; -100 in [6]; -98.2 in [7]; -102 in test [8]. Moreover, the Max Inhibition (* series) in test [3] stood at 2.7; in [4], 1.9. In addition, the pEC50 (GEMBE) stood at 8.37 pEC50 in test [5], 8.36 pEC50 in test [6] and 8.49 pEC50 in test [8]. For the same molecule, the pIC50 in test [5] is 8.27 pIC50 (M); in [6] it was 8.65 pIC50 (M); in test [7], 7.72 pIC50 (M); in [8], 8.78 pIC50 (M); in test [9] it was 7.78 pIC50; in [10] it was 8.63 pIC50. Besides, the pIC50 amounted to 7.63 pIC50 in [11] and 9.64 pIC50 in test [12]. The Max Inhibition (* iPGM 500 pM) in test [6] was -101. The pIC50 (* iPGM 500 pM) in test [6] was 9.6 pIC50 (M). The figures for the fold enhancement in affinity against linear Ce-L2 (from IC50s) in [7] and in test [8] were 10000 fold and 2000 fold, respectively. Besides, the IC50 (commonly the concentration that inhibits the measured activity by half) was 17 nM and 16.8 nM in [9]; 2.3 nM and 2.34 nM in [10]; 23 nM and 23.5 nM in test [11]; 0.23 nM in test [12].

As for YDYPGDYCYLY (modifications not checked) [Ce-2d], in test [3], the Max Inhibition was -6.3 and the Max Inhibition (* series) was 2.3. Further, in test [4], the Max Inhibition is -1.2 and the Max Inhibition (* series) came to 7.9. In test [6], the Max Inhibition is -103, the Max Inhibition (* iPGM 500 pM) is -100, the pEC50 (GEMBE) stood at 8.49 pEC50 and the pIC50 is 8.56 pIC50 (M). Moreover, the pIC50 (* iPGM 500 pM) in test [6] was 9.03 pIC50 (M). In [8], the Max Inhibition was -102, the pEC50 (GEMBE) stood at 8.5 pEC50 and the pIC50 was 8.71 pIC50 (M). Moreover, in test [10], the IC50 is 3.9 nM and 3.88 nM; the pIC50 amounted to 8.41 pIC50. In addition, in test [12], the IC50 is 0.77 nM and the pIC50 was found to be 9.12 pIC50.

YDYPGDHCYLYGTCG (modifications not checked) [Ce-1 (ipglycermide A)] displayed an inhibitory activity (endpoint profiling assays) with iPGM orthologues of 2 to 20 nM. The Max Inhibition in test [3] is 5; in test [4], 4; in test [5] it was -94; in test [6], -95.8; in test [7] it was -95.4; in [8], -96.5. The pIC50 in [5] is 7.92 pIC50 (M); in test [6] it was 8.4 pIC50 (M); in test [7] it was 7.61 pIC50 (M); in [8] it was 8.38 pIC50 (M); in test [13] it was 7.62 pIC50.
